Experimental data as given in PMC10949331, “Labile assembly of a tardigrade protein induces biostasis” (Protein Science : A Publication of the Protein Society, 2024).

Biological target: the molecule itself
Experiment: cross-linking; 1 mg/mL of each protein with increasing BS3 amine ester crosslinker (0.8-8 mM), 30 min at room temperature; denaturing SDS-PAGE, Coomassie blue

B1: Cytoplasmic Abundant Heat Soluble protein D (CAHS D), wild type (natural protein, Hypsibius exemplaris, UniProt P0CU50 1-227, looked up)
chain: MSGRNVESHMERNEKVVVNNSGHADVKKQQQQVEHTEFTHTEVKAPLIHPAPPIISTGAAGLAEEIVGQGFTASAARISGGTAEIHLQPSAAMTEEARRDQERYRQEQESIAKQQEREMEKKTEAYRKTAEAEAEKIRKELEKQHARDVEFRKDLIESTIDRQKREVDLEAKMAKRELDREGQLAKEALERSRLATNVEVNFDSAAGHTVSGGTTVSTSDKMEIKRN
notes: CAHS D of the tardigrade Hypsibius exemplaris, 227 residues, UniProt P0CU50; Cloned into pET28b; also called CAHS8_HYPEX; CAHS 94063; source: E. coli BL21 (DE3), purified (heat lysis, cation exchange in 8 M urea, dialysis, lyophilised)
B1: binds.
